B1: SVPK (K-box region of SVP in prey vector pBI771) (other, not shown: small tags and cut ends)
chain: MSDHARMSKEIADKSHRLRQMRGEELQGLDIEELQQLEKALETGLTRVIETKSDKIMSEISELQKKG
notes: also called SVP K-box; K-box prey construct
B2: AGL27 clone isolated in the AP1 two-hybrid screen (one clone) (other)
chain: MGRRKIEIKRIENKSSRQVTFSKRRNGLIDKARQLSILCESSVAVVVVSASGKLYDSSSGDDISKIIDRYEIQHADELRALDLEEKIQNYLPHKELLETVQSKLEEPNVDNVSVDSLISLEEQLETALSVSRARKAELMMEYIESLKEKEKLLREENQVLASQLSEKKGMSHR
notes: also called new MADS box gene designated AGL27; not shown: fusion partner encoded by prey vector pBI771
B3: shortest AGL24 clone from the CAL two-hybrid screen (other)
chain: EVEDKTKQLRKLRGEDLDGLNLEELQRLEKLLESGLSRVSEKKGECVMSQIFSLEKRGSELVDENKRLRDKLETLERAKLTTLKEALETESVTTNVSSYDSGTPLEDDSDTSLKLGLPSWE
notes: Lacks the MADS domain and I region; also called shortest clone of each class; shortest clones isolated in the screen; not shown: fusion partner encoded by prey vector pBI771
B4: SOC1K (K-box region of SOC1 in prey vector pBI771) (other, not shown: small tags and cut ends)
chain: MKYEAANMMKKIEQLEASKRKLLGEGIGTCSIEELQQIEQQLEKSVKCIRARKTQVFKEQIEQLKQKE
notes: also called SOC1 K-box; K-box prey construct
B5: SEP3K (K-box region of SEP3 in prey vector pBI771) (other)
chain: SQQEYLKLKERYDALQRTQRNLLGEDLGPLSTKELESLERQLDSSLKQIRALRTQFMLDQLNDLQSK
notes: also called SEP3 K-box; K-box prey construct; not shown: fusion partner encoded by prey vector pBI771
B6: AGL24K (K-box region of AGL24 in prey vector pBI771) (other, not shown: small tags and cut ends)
chain: MLENCNLSRLSKEVEDKTKQLRKLRGEDLDGLNLEELQRLEKLLESGLSRVSEKKGECVMSQIFSLE
notes: also called AGL24 K-box; K-box prey construct

Tests used:
[1] = biological target: T1, bait vector (empty pBI-880, GAL4 (1-147) alone) (UniProt P04386 1-147); assay: yeast two-hybrid, K-box prey with empty bait
T1 construct: range 1-147; Negative control: bait vector without insert; also called empty bait
Description: Previous studies have shown that the MADS-domain and I regions may be important for homodimer formation by AG and by AP1 (Krizek and Meyerowitz, 1996; Mizukami et al., 1996; Riechmann et al., 1996) and that the I region and K-domain are needed for the formation of AP3/PI heterodimers (Krizek and Meyerowitz, Proc. Natl. Acad. Sci. USA 93, 4063-4070 (1996); Riechmann et al., Proc. Natl. Acad. Sci. USA 93, 4793-4798 (1996)). In addition, the K-domain of AG is sufficient to promote interactions with SEP1, SEP2, SEP3 and AGL6 in yeast (Fan et al., Plant J. 11, 999-1010 (1997)). Since many of the CAL- and AP1-interacting clones isolated as part of our study lacked the MADS-domain and I regions, we tested if the K-domain itself was sufficient to promote the observed interactions. First, we subcloned the K-box regions of SEP3, SOC1, SVP and AGL24 into the prey vector, and tested their ability to activate the reporter using either the empty bait or the cruciferin gene cloned into the bait plasmid. […] However, other protein domains appear to enhance these interactions since the level of reporter gene activation is higher when larger constructs are used.

[2] = biological target: T2, CAL bait (GAL4 (1-147) fused to the intact CAL coding region in pBI-880) (Arabidopsis thaliana); assay: yeast two-hybrid with CAL bait
T2 construct: range 1-147; also called CAULIFLOWER; full-length CAL cDNA as bait
Description: To confirm the specificity of these interactions, the longest clone of each class was transformed back into yeast with the AP1 bait, the bait vector, and an inert control bait, cruciferin. The strains containing the AP1 bait tested positive for both β-Gal activity and HIS prototrophy. The strains containing the bait vector or the cruciferin bait were negative in both assays. We then tested if the three new AP1-interacting clones could also interact with CAL, since they had not been isolated in the CAL library screen. However, AGL27, the RNA binding protein, and the novel protein were unable to interact with CAL in yeast.

[3] = biological target: T1, bait vector (empty pBI-880, GAL4 …); assay: yeast two-hybrid retest, B-Gal and HIS prototrophy
Description: To confirm the specificity of the observed interactions, the longest and shortest clone of each class was transformed back into a yeast strain that contained either the CAL bait, the bait vector, or an inert control bait, cruciferin. The strains containing the CAL bait tested positive for both B-Gal activity and HIS prototrophy. The strains containing the bait vector or the cruciferin bait were negative in both assays, as they were not able to grow on plates lacking histidine and the yeast colonies were completely white in the B-Gal assay.

Row | Binder | binding result [1] | further results
1 | B1 | no binding | –
2 | B2 | – | binding result [2]: no binding
3 | B3 | – | binding result [3]: no binding
4 | B4 | no binding | –
5 | B5 | no binding | –
6 | B6 | no binding | –
